The target in test [1] is HLA-DR1 (HLA-DRα*0101 and HLA-DRβ1*0101). The experiment in a line: in vitro competition assay (HLA-DR1 peptide binding). Conditions: chain shown with the change.
In test [2] the target is HLA-DR1 (HLA-DRα*0101 and HLA-DRβ1*0101) (human). The test can be described thus: ELISA; competitive peptide-binding assay: test peptide 10^-4-10^-10 M against 4.5 nM biotinylated CLIP 99-117 marker peptide for 0.1 μg refolded HLA-DR1-CLIP 105-117; 20 mM MES, 140 mM NaCl, 0.02% NaN3, pH 5, overnight at 37 °C; HLA-DR1 captured on anti-DR L243, bound marker detected with streptavidin-HRP; % competitive inhibition, four-parameter fit.

The IC50 is the point on the concentration scale where inhibition reaches its midpoint. Higher therefore signals weaker potency in that assay.

In turn, FARRPPLAELAAANLSGSRL [5T4_(111–130) 20-mer peptide L7A] yielded an IC50 in test [1] of 725 nM. On to FARRPPLAELAALNLSGSRL [5T4_(111–130) 20-mer peptide], for which the IC50 in test [2] was 176 nM. That is a sub-micromolar value.

The molecule FARRPPLAELAALNLSRSRL [5T4_(111–130) 20-mer peptide G11R] had an IC50 in test [1] of 255 nM. Still for that read-out and setting: next, FARRPPLAELAALALSGSRL [5T4_(111–130) 20-mer peptide N8A]: 144 nM.

The values are drawn from PMC6937582, “Human leukocyte antigen (HLA) class II peptide flanking residues tune the immunogenicity of a human tumor-derived epitope” (The Journal of Biological Chemistry, 2019).
